PMC13281839

Molecular target: N‐terminal half of fibrillin‐1, fragment rF90 (S19‐V1527) (UniProt P35555)
Assay: SPR

Sequence of UniProt P35555 (P35555 45-1527): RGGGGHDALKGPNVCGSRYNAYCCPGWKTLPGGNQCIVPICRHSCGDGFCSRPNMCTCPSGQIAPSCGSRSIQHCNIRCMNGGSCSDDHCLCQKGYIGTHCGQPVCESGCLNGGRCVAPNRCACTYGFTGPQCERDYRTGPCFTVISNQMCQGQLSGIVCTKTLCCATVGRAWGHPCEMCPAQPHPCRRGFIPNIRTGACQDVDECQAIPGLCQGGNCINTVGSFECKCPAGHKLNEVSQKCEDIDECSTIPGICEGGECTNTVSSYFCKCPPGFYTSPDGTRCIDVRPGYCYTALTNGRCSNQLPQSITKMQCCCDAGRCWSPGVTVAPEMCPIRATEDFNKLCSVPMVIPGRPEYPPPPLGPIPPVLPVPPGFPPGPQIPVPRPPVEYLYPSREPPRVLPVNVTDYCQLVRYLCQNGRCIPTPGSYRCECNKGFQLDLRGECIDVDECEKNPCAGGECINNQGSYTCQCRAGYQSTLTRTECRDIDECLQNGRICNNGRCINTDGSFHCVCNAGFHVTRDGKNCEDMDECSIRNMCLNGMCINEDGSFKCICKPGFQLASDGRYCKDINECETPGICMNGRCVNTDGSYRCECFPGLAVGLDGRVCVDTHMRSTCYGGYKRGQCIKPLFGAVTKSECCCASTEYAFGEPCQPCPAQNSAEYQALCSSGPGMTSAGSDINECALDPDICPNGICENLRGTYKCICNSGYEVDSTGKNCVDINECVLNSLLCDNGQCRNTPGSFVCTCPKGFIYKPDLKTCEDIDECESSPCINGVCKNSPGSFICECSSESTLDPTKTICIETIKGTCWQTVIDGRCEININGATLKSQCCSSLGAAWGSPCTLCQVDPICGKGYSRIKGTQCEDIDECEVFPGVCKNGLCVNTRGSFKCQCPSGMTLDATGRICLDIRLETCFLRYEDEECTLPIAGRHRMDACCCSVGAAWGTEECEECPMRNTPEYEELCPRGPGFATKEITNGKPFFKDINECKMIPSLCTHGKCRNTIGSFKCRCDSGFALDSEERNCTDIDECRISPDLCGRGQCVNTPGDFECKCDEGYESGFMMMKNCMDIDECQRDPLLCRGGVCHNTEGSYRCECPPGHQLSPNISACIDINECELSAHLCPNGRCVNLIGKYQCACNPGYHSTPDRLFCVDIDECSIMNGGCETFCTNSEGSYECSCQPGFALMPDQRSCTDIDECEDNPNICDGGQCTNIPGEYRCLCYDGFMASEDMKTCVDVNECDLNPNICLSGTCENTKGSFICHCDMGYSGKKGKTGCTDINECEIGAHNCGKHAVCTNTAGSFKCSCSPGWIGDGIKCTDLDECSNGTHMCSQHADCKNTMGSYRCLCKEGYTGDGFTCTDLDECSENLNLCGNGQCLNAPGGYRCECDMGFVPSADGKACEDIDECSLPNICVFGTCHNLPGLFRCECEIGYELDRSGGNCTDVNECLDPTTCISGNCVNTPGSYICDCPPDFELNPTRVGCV

Substance: BMP‐7 CPLX (BMP‐7 growth factor‐prodomain complex) (from UniProt P18075 293-431)
- Kd: 7 nM
